Consider three molecules from patent US7459543B2, “Modulators of antiestrogen pharmacology” (priority 2000, dated 2008).

Assay [1] concerns ERCoA3. Kind of assay: Northern hybridization for ERCoA3 expression in MCF-7 cells. Format: cell-based, human. The conditions noted are these: 10^-8 M, 24 h. Here is the method:
FIG. 8. ERCoA3 is expressed in cells that respond to tamoxifen as an agonist. (A) Total RNA was isolated from untreated parental MCF-7 cells (−), and cells treated for 24 h with 10^−8 M estradiol (E2) or 10^−8 M trans-hydroxytamoxifen (TOT), and tamoxifen resistant cells (TOT^R). (B) Total RNA was collected from untreated Hec cells and cells treated for 24 h with 10^−8 M estradiol (E2) or 10^−8 M trans-hydroxytamoxifen. Equal amounts (20 μg) of total RNA were separated by electrophoresis. Blots were probed with the random primer labeled ERCoA3 cDNA and 36B4 cDNA (to control for RNA loading).
It was determined whether there was increased expression of ERCoA3 in cells that were resistant to SERMs, specifically TOT. RNA was isolated from MCF-7 cells and also from tamoxifen-resistant (TOT^R) MCF-7 cells. Northern hybridization was performed using an ERCoA3 probe. These experiments indicated increased expression of ERCoA3 in TOT^R MCF-7 cells when compared to parental MCF-7 cells (FIG. 8A). […] Expression of ERCoA3 was also examined in another human cell line, human endometrium cancer cell line, HEC-1B.

Assay [2] deals with T1, Progesterone Receptor β (PRβ) (Homo sapiens, UniProt P06401).
T1 sequence (P06401 1-933): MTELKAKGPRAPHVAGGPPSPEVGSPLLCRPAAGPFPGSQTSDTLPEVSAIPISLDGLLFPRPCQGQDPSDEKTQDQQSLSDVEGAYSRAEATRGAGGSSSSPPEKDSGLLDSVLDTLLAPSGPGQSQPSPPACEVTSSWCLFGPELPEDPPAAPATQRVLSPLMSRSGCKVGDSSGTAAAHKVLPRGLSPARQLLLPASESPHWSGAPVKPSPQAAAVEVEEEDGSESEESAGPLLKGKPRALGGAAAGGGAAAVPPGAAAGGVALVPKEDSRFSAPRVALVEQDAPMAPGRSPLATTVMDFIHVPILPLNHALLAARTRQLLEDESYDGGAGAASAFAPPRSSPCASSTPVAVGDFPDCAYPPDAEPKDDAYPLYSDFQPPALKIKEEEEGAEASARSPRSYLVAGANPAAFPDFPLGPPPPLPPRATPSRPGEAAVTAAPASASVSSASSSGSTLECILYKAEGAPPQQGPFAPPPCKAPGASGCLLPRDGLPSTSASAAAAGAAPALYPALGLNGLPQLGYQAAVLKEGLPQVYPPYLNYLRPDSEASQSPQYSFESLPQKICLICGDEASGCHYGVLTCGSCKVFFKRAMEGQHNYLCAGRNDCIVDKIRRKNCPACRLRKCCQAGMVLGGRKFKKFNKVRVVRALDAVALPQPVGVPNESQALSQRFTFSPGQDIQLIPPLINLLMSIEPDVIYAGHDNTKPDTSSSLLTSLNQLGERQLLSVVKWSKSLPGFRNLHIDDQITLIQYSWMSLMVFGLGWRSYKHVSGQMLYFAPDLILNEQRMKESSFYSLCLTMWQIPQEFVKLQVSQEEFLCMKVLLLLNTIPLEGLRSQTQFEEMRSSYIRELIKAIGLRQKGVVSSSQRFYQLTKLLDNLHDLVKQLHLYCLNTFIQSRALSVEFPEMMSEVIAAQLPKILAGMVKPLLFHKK
Kind of assay: GST-ERCoA3 protein-protein interaction (pull-down) assay with [35S]-PRβ. Format: binding. The conditions noted are these: vehicle, 10^-6 M R5020 or RU-486. Here is the method: (§1) FIG. 4. ERCoA3 preferentially interacts with antagonist-bound ERα and PRβ. In vitro translated and [^35S]-methionine-labeled (A) Estrogen Receptor α (ERα) or (B) Progesterone Receptor β (PRβ) were incubated with GST alone or GST-ERCoA3 bound to Sepharose in the presence of vehicle, 10^−6 M Estradiol (E2), 10^−6 M trans-hydroxytamoxifen (TOT), 10^−6 M ICI 182,780 (ICI), 10^−6 M R5020, or 10^−6 M RU-486 as indicated. Bound protein was eluted with excess glutathione and analyzed by 12.5% SDS-polyacrylamide gel electrophoresis. The autoradiograph is representative of 3 separate experiments. Abbreviations: E2, 17-β estradiol; TOT, transhydroxytamoxifen; ICI, ICI182,780 (a pure ER antagonist); R5020, a synthetic PR agonist, and RU-486, a partial agonist of PRβ.
(§2) Somewhat different findings were made with Progesterone Receptor β (PRβ).

In assay [3] the test system is ERα. The experiment in a line: (ERE)2-TATA-CAT reporter assay in CHO cells transfected with ERα. Conditions: CHO cells cotransfected with ERCoA3 expression vector vs cmv5 control; estrogen, TOT or ICI, 24 h. Format: cell-based. The method, then:
FIG. 5. ERCoA3 enhances partial agonist activity of antiestrogens. CHO cells were transfected with expression vectors for ERα and reporter construct (ERE)2-TATA-CAT. The cells were cotransfected with cmv5 control expression vector or expression vector for ERCoA3, as indicated. The cells were also transfected with a β-galactosidase internal control reporter to correct for transfection efficiency. Cells were then treated for 24 h with control vehicle or increasing concentrations of estradiol (E2), trans-hydroxytamoxifen (TOT) or ICI 182,780, as indicated. Values are the means ± S.E. from three separate experiments.
The ability of ERCoA3 to affect the response that a ligand has on ER was then tested. CHO cells were transfected with a CAT reporter construct wherein transcription of the CAT gene was regulated by a estrogen-responsive element, or with both a CAT reporter construct and an expression vector for ERCoA3. The cells were grown in either estrogen, TOT or ICI, and CAT activity was assayed.
(In general: A reporter such as luciferase makes a cellular process visible.)

Assay [4] has as its target T1, Progesterone Receptor β (PRβ). Kind of assay: MMTV-CAT reporter assay in CHO cells transfected with PRβ. It counts as cell-based. Also noted: expressed in transfected cells; host or cells: CHO cells. Conditions: CHO cells cotransfected with ERCoA3 vs cmv5 control; unliganded, 10^-8 M R5020 or RU-486, 24 h. The method, then: FIG. 7. ERCoA3 enhances partial agonist activity of RU-486. CHO cells were transfected with expression vectors for Progesterone Receptor β (PRβ) or reporter construct MMTV-CAT. The cells were cotransfected with cmv5 control expression vector or expression vector for ERCoA3 as indicated. The cells were also transfected with a β-galactosidase internal control reporter to correct for transfection efficiency. Cells were then treated for 24 h with 10^−8 M R5020 or RU-486. Values are the means ±S.E. from three separate experiments.
as §2

Assay [5] deals with T2, estrogen receptor α (ERα) (Homo sapiens, UniProt P03372).
T2 construct: made in house
T2 sequence (P03372 1-595): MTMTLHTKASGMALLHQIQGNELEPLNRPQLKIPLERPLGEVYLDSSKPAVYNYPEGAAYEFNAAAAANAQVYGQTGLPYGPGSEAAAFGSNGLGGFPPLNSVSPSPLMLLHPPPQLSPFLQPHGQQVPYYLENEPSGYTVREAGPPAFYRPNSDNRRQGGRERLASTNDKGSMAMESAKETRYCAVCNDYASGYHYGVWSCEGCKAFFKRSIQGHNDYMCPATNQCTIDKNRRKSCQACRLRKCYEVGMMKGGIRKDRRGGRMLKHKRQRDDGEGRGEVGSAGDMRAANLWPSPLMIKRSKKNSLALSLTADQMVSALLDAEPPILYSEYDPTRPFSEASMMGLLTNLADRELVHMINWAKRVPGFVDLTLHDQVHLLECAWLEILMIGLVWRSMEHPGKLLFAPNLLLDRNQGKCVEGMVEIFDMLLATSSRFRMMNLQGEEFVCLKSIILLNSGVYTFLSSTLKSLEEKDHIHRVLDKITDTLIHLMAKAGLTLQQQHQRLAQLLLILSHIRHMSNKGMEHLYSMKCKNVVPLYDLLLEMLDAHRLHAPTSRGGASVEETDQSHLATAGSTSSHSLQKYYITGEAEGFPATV
Kind of assay: GST-ERCoA3 protein-protein interaction (pull-down) assay with [35S]-ERα. It counts as binding. The conditions noted are these: vehicle, 10^-6 M E2, TOT or ICI. The method, then:
as §1
A protein-protein interaction assay was used in which the affinity matrix (i.e., bound to a column) was a glutathione-S-transferase (GST) fusion protein wherein GST was fused to ERCoA3. In vitro transcribed and translated [^35S]-ERα was retained by the GST-ERCoA3 affinity column preferentially in the presence of antiestrogens, trans-hydroxytamoxifen (TOT) and ICI182,780 (ICI) when compared to estradiol (E2) (FIG. 4A). ERα was not retained on the GST protein column without ERCoA3 (or GST alone).

Assay [6] concerns ERα transcriptional activity. The experiment in a line: (ERE)2-PS2-CAT reporter assay in MCF-7 cells. It counts as cell-based, human. The conditions noted are these: MCF-7 cells cotransfected with ERCoA3 vs cmv5 control; 10^-8 M E2 plus increasing TOT or ICI, 24 h. The method, then: FIG. 6. ERCoA3 attenuates the antiestrogenic effects of TOT and ICI on ERα transcriptional activity. MCF-7 cells were transfected with (ERE)2-PS2-CAT reporter construct. The cells were cotransfected with cmv5 control expression vector or expression vector for ERCoA3, as indicated. The cells were also transfected with a β-galactosidase internal control reporter to correct for transfection efficiency. Cells were then treated for 24 h with 10^−8 M estradiol (E2) and increasing concentration of trans-hydroxytamoxifen (TOT; panel A) or ICI 182,780 (ICI; panel B). Values are the means ±S.E. from three separate experiments.
Another very similar study examined the effect of ERCoA3 on the ability of TOT (FIG. 6A) and ICI (FIG. 6B) to block activation of ER. MCF-7 cells were transfected with a CAT reporter construct wherein transcription of the CAT gene was regulated by a estrogen-responsive element, or with both a CAT reporter construct and an expression vector for ERCoA3. The cells were then grown in TOT or ICI and CAT activity was assayed.

Take trans-hydroxytamoxifen [TOT]: the “ERCoA3 expression (Northern)” value in assay [1] is given as “Neither E2 nor TOT affected ERCoA3 expression”.

In the case of `C[C@]12CC[C@@H]3c4ccc(O)cc4CC[C@H]3[C@@H]1CC[C@@H]2O` [E2, 17-β-estradiol], the “ERCoA3 expression (Northern)” value in assay [1] is reported as “Neither E2 nor TOT affected ERCoA3 expression”.

B1: ERCoA3: 79 amino acid ER coactivator protein (SEQ. ID. NO. 2); used as GST fusion or expressed from vector (protein, listed as Homo sapiens)
chain: MCGRPRRVSAGCGFADAHWTGLWTGLGEGQEGGIGPEGQASPTPDCASRWPRSASRWPWSAGLTVRDRPQLGELCMGRG
For B1, the “interaction of ERCoA3 with PRβ” value in assay [2] is “interacted with both unliganded and antiprogestin- (RU-486, a partial agonist) bound PRβ”. For the same molecule, the “CAT activity (activation of ER)” value in assay [3] is given as “increased CAT activity”. Moreover, the PRβ transcriptional activity entry in assay [4] was “enhanced the activity of both unliganded and RU-486-bound PRβ”. The “retention of [35S]-ERα on GST-ERCoA3 affinity column” value in assay [5] was “binds ER but binds ER better if ER are already bound to a partial agonist or antagonist”. Also, the “activation of ER (CAT activity) in presence of TOT or ICI” value in assay [6] is on record as “increases activation of ER”.
